This passage reports Kd results from doi:10.1101/2024.10.22.619416 (bioRxiv, 2024).

Sequences and labels used below:
B1: alpaca nanobody 3-2A2-4 (VHH)
VHH: QVQLQESGGGLVQPGESLRLSCAASGSISTLNVMGWYRQAPGKQRELVAQITLDGSPEYADSVKGRFTITKDGAQSTLYLQMNNLKPEDTAVYFCKLENGGFFYYWGQGTQVTVST
B2: humanized nanobody hNb1.1 (VHH)
VHH: EVQLVESGGGLVQPGGSLRLSCAASGSISTLNVMGWFRQAPGKGREWVAAITLDGSPYYADSVKGRFTISRDNAKNTLYLQMNSLRPEDTAVYYCKLENGGFFYYWGQGTQVTVSS
B3: humanized nanobody hNb1.3 (VHH)
VHH: EVQLVESGGGLVQPGGSLRLSCAASGSISTLNVMSWVRQAPGKGLEWVSSITLDGSPNYADSVKGRFTISRDNSKNTLYLQMNSLRVEDTAVYYCKLENGGFFYYWGQGTLVTVSS
B4: humanized nanobody hNb1.5 (VHH)
VHH: EVQLVESGGGLVQPGGSLRLSCAASGSISTLNVMGWYRQAPGKQRELVAQITLDGSPEYADSVKGRFTISRDNSKNTLYLQMNSLKPEDTAVYYCKLENGGFFYYWGQGTQVTVSS
B5: humanized nanobody hNb1.2 (VHH)
VHH: EVQLVESGGGLVQPGGSLRLSCAASGSISTLNVMSWVRQAPGKGLEWVSSITLDGSPYYADSVKGRFTISRDNSKNTLYLQMNSLRVEDTAVYYCKLENGGFFYYWGQGTLVTVSS
B6: humanized nanobody hNb1.4 (VHH)
VHH: EVQLVESGGGLVQPGGSLRLSCAASGSISTLNVMGWYRQAPGKQRELVAQITLDGSPEYADSVKGRFTISRDNAKNTLYLQMNSLRAEDTAVYYCKLENGGFFYYWGQGTQVTVSS
B7: humanized antibody hAb1.1 (antibody, V domains shown)
VH: QVQLQESGPGLVKPSETLSLTCSVSGFSLINYAISWIRQPPGKGLEWIGVIWTGGGTNYNSALKSRLTISRDTSKNQVFLKMNSVTAADTAVYYCARKDYYGRYYGMDYWGQGTLVTVSS
VL: QAVVTQEPSLTVSPGGTVTLTCRSSTGAVTTSNYANWLQQKPGQAPRGLIGGTNNRAPGVPPRFSGSILGDKAALTLSGAQSEDEADYYCALWYNNHWVFGGGTKLTVL
B8: humanized antibody hAb1.4 (antibody, V domains shown)
VH: QVQLQESGPGLVKPSETLSLTCTVSGFSLINYAISWVRQAPGKGLEWIGVIWTGGGTNYNSALKSRLTISVDTSKSQVSLRLSSVTAADTAVYYCARKDYYGRYYGMDYWGQGTLVTVSS
VL: QAVVTQEPSLTVSPGGTVTLTCRSSTGAVTTSNYANWFQQKPGQAPRGLIGGTNNRAPGVPARFSGSILGGKAALTLSGAQPEDEADYYCALWYNNHWVFGGGTKLTVL
B9: humanized antibody hAb1.5 (antibody, V domains shown)
VH: QVQLQESGPGLVKPSETLSLTCTVSGFSLINYAISWIRQAPGKGLEWIGVIWTGGGTNYNSALKSRLTISVDTSKSQFSLKLSSVTAADTAVYYCARKDYYGRYYGMDYWGQGTLVTVSS
VL: QAVVTQEPSLTVSPGGTVTLTCRSSTGAVTTSNYANWFQQRPGQPPRGLIGGTNNRAPGVPARFSGSILGGKAALTLSGAQPEDEADYYCALWYNNHWVFGGGTKLTVL
B10: humanized antibody hAb1.2 (antibody, V domains shown)
VH: QVQLQESGPGLVKPSETLSLTCTVSGFSLINYAISWIRQAPGKGLEWIGVIWTGGGTNYNSALKSRLTISRDTSKSQVFLKLNSVTAADTAVYYCARKDYYGRYYGMDYWGQGTLVTVSS
VL: QAVVTQEPSLTVSPGGTVTLTCRSSTGAVTTSNYANWFQQKPGQAPRGLIGGTNNRAPWVPDRFSGSLLGGKAALTLSGAQPEDEADYYCALWYNNHWVFGGGTKLTVL

For the experiment, the target named is SARS-CoV-2 (2019-nCoV) Spike RBD protein (SARS-CoV-2 (2019-nCoV), ancestral …, UniProt P0DTC2). The experiment in a line: BLI. (In general: In BLI a coated tip is dipped into the sample, and binding shifts an interference pattern.)
The Kd is the concentration at which binding is half-saturated. Low values mean a tighter complex, high ones a looser complex. Regarding B1, the Kd was found to be 5.47 nM.

B2 returned a Kd of 2.52 nM. The value for B3 was 58.2 nM.

Regarding B4, binding was put at a Kd of 7.4 nM. Under B5 stands 45.7 nM; under B6, 5.83 nM. Under B7 stands 0.27 nM; under B8, 1.03 nM. Under B9 stands 6.37 nM.

The molecule B10 gave an equilibrium dissociation constant (Kd) of 0.15 nM.
